{"source": "patent US10526371B2", "about": "“Hydrogel-forming peptides” (Universiteit Gent, priority 2015, dated 2020)", "test": "Peptide self-assembly / gelation conditions", "type": "physicochemical", "conditions": "for time of gelation (self-supporting gel formed) / gelation condition: TFA salt; for time of gelation (self-supporting gel formed): at its own gelation condition", "description": "Peptide self-assembly was analyzed in i) a PBS solution (10 mM), ii) a PBS/mQ mixture (1:1 v:v, mQ water with a resistivity of […]) or iii) a NaCl aqueous solution (150 mM). The TFA salt of reference peptide SEQ NO. 23 (1 mg) was dissolved in 50 μl mQ water, followed by the addition of 50 μl PBS solution. This mixture was left to rest overnight, resulting in a 1% w/v hydrogel. The TFA salt of mixed α/β-peptides SEQ ID NO 1 and SEQ ID NO 2 (2 mg) was dissolved in mQ (100 μL) and PBS/mQ mixture (100 μL), respectively. […] The TFA salt of mixed α/β-peptide SEQ ID NO 3 (3 mg) was dissolved in PBS (100 μL) to probe gelation. All self-assembled gels were analyzed by circular dichroism (CD) and Fourier transform infrared (FT-IR) spectroscopy, as well as cryogenic transmission electron microscopy (Cryo-TEM).\n(SEQ ID NO:22 (=10-mer)), 100 μl mQ water was added to 2 mg of TFA-salt of pure peptide, then vortexed and sonicated. As a result, a transparent self-supporting gel was formed immediately. A gelation condition of 2 w/v % in mQ water was found.\nfor H-Fβ^2hFEFQFK-NH2 (SEQ ID NO:19), 100 μl of PBS was added to 2 mg of TFA-salt of pure peptide, then vortexed and sonicated. After overnight resting, a self-supporting gel was formed. A gelation condition of 2 w/v % in PBS was determined.", "note": "Numbered stars: 1 amine (or outer) side, 2 acyl side, 3 side chain; on linkers, the order of the positions; unused ones are H or OH. Square brackets hold non-standard residues; d marks the D form. β3hCha = beta-3-homo-cyclohexylalanine, O=C(C[C@H](CC1CCCCC1)N[*:1])[*:2]; β3hW = N[C@H](CC(=O)O)Cc1c[nH]c2ccccc12; β3hF = N[C@H](CC(=O)O)Cc1ccccc1", "data": [{"substance": "H-Glu-β^3hPhe-Phe-Lys-β^3hPhe-Phe-NH2 (H-E[β3hF]FK[β3hF]F-NH2; SMILES NCCCC[C@H](NC(=O)[C@H](Cc1ccccc1)NC(=O)C[C@H](Cc1ccccc1)NC(=O)[C@@H](N)CCC(=O)O)C(=O)N[C@H](CC(=O)N[C@@H](Cc1ccccc1)C(N)=O)Cc1ccccc1) [SEQ ID NO 12]", "values": [{"measurement": "Gelation condition % (w/v)", "setting": "in mQ/PBS 1:0.5", "value": "1.5% (mQ/PBS 1:0.5) % (w/v)"}]}, {"substance": "H-Phe-Gln-β^3hPhe-Phe-Gln-β^3hPhe-Phe-Lys-OH (H-FQ[β3hF]FQ[β3hF]FK-OH; SMILES NCCCC[C@H](NC(=O)[C@H](Cc1ccccc1)NC(=O)C[C@H](Cc1ccccc1)NC(=O)[C@H](CCC(N)=O)NC(=O)[C@H](Cc1ccccc1)NC(=O)C[C@H](Cc1ccccc1)NC(=O)[C@H](CCC(N)=O)NC(=O)[C@@H](N)Cc1ccccc1)C(=O)O) [SEQ ID NO 5]", "values": [{"measurement": "Gelation condition % (w/v)", "setting": "in mQ", "value": "2% (mQ) % (w/v)"}]}, {"substance": "H-Phe-Gln-β^3hPhe-Phe-Lys-NH2 (H-FQ[β3hF]FK-NH2; SMILES NCCCC[C@H](NC(=O)[C@H](Cc1ccccc1)NC(=O)C[C@H](Cc1ccccc1)NC(=O)[C@H](CCC(N)=O)NC(=O)[C@@H](N)Cc1ccccc1)C(N)=O) [SEQ ID NO 9]", "values": [{"measurement": "Gelation condition % (w/v)", "setting": "in PBS", "value": "3% (PBS) % (w/v)"}]}, {"substance": "H-Phe-Glu-Phe-Gln-Phe-Lys-β^3hPhe-Phe-NH2 (H-FEFQFK[β3hF]F-NH2; SMILES NCCCC[C@H](NC(=O)[C@H](Cc1ccccc1)NC(=O)[C@H](CCC(N)=O)NC(=O)[C@H](Cc1ccccc1)NC(=O)[C@H](CCC(=O)O)NC(=O)[C@@H](N)Cc1ccccc1)C(=O)N[C@H](CC(=O)N[C@@H](Cc1ccccc1)C(N)=O)Cc1ccccc1) [SEQ ID NO 21]", "values": [{"measurement": "Gelation condition % (w/v)", "setting": "in mQ/PBS 1:1", "value": "1.5% (mQ/PBS 1:1) % (w/v)"}]}, {"substance": "H-Phe-Glu-Phe-Gln-β^3hPhe-Phe-Lys-NH2 (H-FEFQ[β3hF]FK-NH2; SMILES NCCCC[C@H](NC(=O)[C@H](Cc1ccccc1)NC(=O)C[C@H](Cc1ccccc1)NC(=O)[C@H](CCC(N)=O)NC(=O)[C@H](Cc1ccccc1)NC(=O)[C@H](CCC(=O)O)NC(=O)[C@@H](N)Cc1ccccc1)C(N)=O) [SEQ ID NO 18]", "values": [{"measurement": "Gelation condition % (w/v)", "setting": "in PBS", "value": "2% (PBS) % (w/v)"}]}, {"substance": "H-Phe-Glu-β^3Phe-Tyr-Gln-β^3hPhe-Tyr-Lys-OH (H-FE[β3hF]YQ[β3hF]YK-OH) [SEQ ID NO 4]", "values": [{"measurement": "Gelation condition % (w/v)", "setting": "in PBS", "value": "2% (PBS) % (w/v)"}]}, {"substance": "H-Phe-Glu-β^3hCha-Phe-Gln-β^3hCha-Phe-Lys-OH (H-FE[β3hCha]FQ[β3hCha]FK-OH) [SEQ ID NO 8]", "values": [{"measurement": "Gelation condition % (w/v)", "setting": "in mQ", "value": "3% (mQ) % (w/v)"}]}, {"substance": "H-Phe-Glu-β^3hPhe-Phe-Gln-Phe-Gln-β^3hPhe-Phe-Lys-NH2 (H-FE[β3hF]FQFQ[β3hF]FK-NH2; SMILES NCCCC[C@H](NC(=O)[C@H](Cc1ccccc1)NC(=O)C[C@H](Cc1ccccc1)NC(=O)[C@H](CCC(N)=O)NC(=O)[C@H](Cc1ccccc1)NC(=O)[C@H](CCC(N)=O)NC(=O)[C@H](Cc1ccccc1)NC(=O)C[C@H](Cc1ccccc1)NC(=O)[C@H](CCC(=O)O)NC(=O)[C@@H](N)Cc1ccccc1)C(N)=O) [SEQ ID NO 22]", "values": [{"measurement": "time of gelation (self-supporting gel formed)", "value": "immediately"}, {"measurement": "gelation condition", "setting": "in mQ water", "value": 2, "unit": "w/v %"}, {"measurement": "Gelation condition % (w/v)", "setting": "in mQ", "value": "2% (mQ) % (w/v)"}]}, {"substance": "H-Phe-Glu-β^3hPhe-Phe-Gln-Phe-Lys-NH2 (H-FE[β3hF]FQFK-NH2; SMILES NCCCC[C@H](NC(=O)[C@H](Cc1ccccc1)NC(=O)[C@H](CCC(N)=O)NC(=O)[C@H](Cc1ccccc1)NC(=O)C[C@H](Cc1ccccc1)NC(=O)[C@H](CCC(=O)O)NC(=O)[C@@H](N)Cc1ccccc1)C(N)=O) [SEQ ID NO 13]", "values": [{"measurement": "Gelation condition % (w/v)", "setting": "in PBS", "value": "2% (PBS) % (w/v)"}]}, {"substance": "H-Phe-Glu-β^3hPhe-Phe-Gln-Phe-Lys-Phe-NH2 (H-FE[β3hF]FQFKF-NH2; SMILES NCCCC[C@H](NC(=O)[C@H](Cc1ccccc1)NC(=O)[C@H](CCC(N)=O)NC(=O)[C@H](Cc1ccccc1)NC(=O)C[C@H](Cc1ccccc1)NC(=O)[C@H](CCC(=O)O)NC(=O)[C@@H](N)Cc1ccccc1)C(=O)N[C@@H](Cc1ccccc1)C(N)=O) [SEQ ID NO 20]", "values": [{"measurement": "Gelation condition % (w/v)", "setting": "in mQ/PBS 1:1", "value": "1.5% (mQ/PBS 1:1) % (w/v)"}]}, {"substance": "H-Phe-Glu-β^3hPhe-Phe-Lys-NH2 (H-FE[β3hF]FK-NH2; SMILES NCCCC[C@H](NC(=O)[C@H](Cc1ccccc1)NC(=O)C[C@H](Cc1ccccc1)NC(=O)[C@H](CCC(=O)O)NC(=O)[C@@H](N)Cc1ccccc1)C(N)=O) [SEQ ID NO 6]", "values": [{"measurement": "Gelation condition % (w/v)", "setting": "in PBS", "value": "3% (PBS) % (w/v)"}]}, {"substance": "H-Phe-Glu-β^3hPhe-Phe-Lys-OH (H-FE[β3hF]FK-OH; SMILES NCCCC[C@H](NC(=O)[C@H](Cc1ccccc1)NC(=O)C[C@H](Cc1ccccc1)NC(=O)[C@H](CCC(=O)O)NC(=O)[C@@H](N)Cc1ccccc1)C(=O)O) [SEQ ID NO 7]", "values": [{"measurement": "Gelation condition % (w/v)", "setting": "in mQ", "value": "3% (mQ) % (w/v)"}]}, {"substance": "H-Phe-Glu-β^3hPhe-Phe-Lys-Phe-NH2 (H-FE[β3hF]FKF-NH2; SMILES NCCCC[C@H](NC(=O)[C@H](Cc1ccccc1)NC(=O)C[C@H](Cc1ccccc1)NC(=O)[C@H](CCC(=O)O)NC(=O)[C@@H](N)Cc1ccccc1)C(=O)N[C@@H](Cc1ccccc1)C(N)=O) [SEQ ID NO 11]", "values": [{"measurement": "Gelation condition % (w/v)", "setting": "in PBS", "value": "2% (PBS) % (w/v)"}]}, {"substance": "H-Phe-Glu-β^3hPhe-Phe-Lys-β^3hPhe-Phe-NH2 (H-FE[β3hF]FK[β3hF]F-NH2; SMILES NCCCC[C@H](NC(=O)[C@H](Cc1ccccc1)NC(=O)C[C@H](Cc1ccccc1)NC(=O)[C@H](CCC(=O)O)NC(=O)[C@@H](N)Cc1ccccc1)C(=O)N[C@H](CC(=O)N[C@@H](Cc1ccccc1)C(N)=O)Cc1ccccc1) [SEQ ID NO 16]", "values": [{"measurement": "Gelation condition % (w/v)", "setting": "in mQ", "value": "2% (mQ) % (w/v)"}]}, {"substance": "H-Phe-β^3hPhe-Glu-Phe-Gln-Phe-Lys-NH2 (H-F[β3hF]EFQFK-NH2; SMILES NCCCC[C@H](NC(=O)[C@H](Cc1ccccc1)NC(=O)[C@H](CCC(N)=O)NC(=O)[C@H](Cc1ccccc1)NC(=O)[C@H](CCC(=O)O)NC(=O)C[C@H](Cc1ccccc1)NC(=O)[C@@H](N)Cc1ccccc1)C(N)=O) [SEQ ID NO 19]", "values": [{"measurement": "time of gelation (self-supporting gel formed)", "value": "overnight"}, {"measurement": "gelation condition", "setting": "in PBS", "value": 2, "unit": "w/v %"}, {"measurement": "Gelation condition % (w/v)", "setting": "in PBS", "value": "2% (PBS) % (w/v)"}]}, {"substance": "H-Trp-Glu-β^3hPhe-Phe-Gln-Trp-Lys-NH2 (H-WE[β3hF]FQWK-NH2; SMILES NCCCC[C@H](NC(=O)[C@H](Cc1c[nH]c2ccccc12)NC(=O)[C@H](CCC(N)=O)NC(=O)[C@H](Cc1ccccc1)NC(=O)C[C@H](Cc1ccccc1)NC(=O)[C@H](CCC(=O)O)NC(=O)[C@@H](N)Cc1c[nH]c2ccccc12)C(N)=O) [SEQ ID NO 15]", "values": [{"measurement": "Gelation condition % (w/v)", "setting": "in PBS", "value": "2% (PBS) % (w/v)"}]}, {"substance": "H-Trp-Glu-β^3hTrp-Trp-Gln-Trp-Lys-NH2 (H-WE[β3hW]WQWK-NH2; SMILES NCCCC[C@H](NC(=O)[C@H](Cc1c[nH]c2ccccc12)NC(=O)[C@H](CCC(N)=O)NC(=O)[C@H](Cc1c[nH]c2ccccc12)NC(=O)C[C@H](Cc1c[nH]c2ccccc12)NC(=O)[C@H](CCC(=O)O)NC(=O)[C@@H](N)Cc1c[nH]c2ccccc12)C(N)=O) [SEQ ID NO 14]", "values": [{"measurement": "Gelation condition % (w/v)", "setting": "in mQ/PBS 1:0.5", "value": "1.5% (mQ/PBS 1:0.5) % (w/v)"}]}, {"substance": "H-β^3hPhe-Phe-Glu-Phe-Gln-Phe-Lys-NH2 (H-[β3hF]FEFQFK-NH2; SMILES NCCCC[C@H](NC(=O)[C@H](Cc1ccccc1)NC(=O)[C@H](CCC(N)=O)NC(=O)[C@H](Cc1ccccc1)NC(=O)[C@H](CCC(=O)O)NC(=O)[C@H](Cc1ccccc1)NC(=O)C[C@@H](N)Cc1ccccc1)C(N)=O) [SEQ ID NO 17]", "values": [{"measurement": "Gelation condition % (w/v)", "setting": "in PBS", "value": "2% (PBS) % (w/v)"}]}, {"substance": "H-β^3hPhe-Phe-Glu-β^3hPhe-Phe-Lys-NH2 (H-[β3hF]FE[β3hF]FK-NH2; SMILES NCCCC[C@H](NC(=O)[C@H](Cc1ccccc1)NC(=O)C[C@H](Cc1ccccc1)NC(=O)[C@H](CCC(=O)O)NC(=O)[C@H](Cc1ccccc1)NC(=O)C[C@@H](N)Cc1ccccc1)C(N)=O) [SEQ ID NO 10]", "values": [{"measurement": "Gelation condition % (w/v)", "setting": "in PBS", "value": "1% (PBS) % (w/v)"}]}]}
